According to patent publication US20130281677A1 (CEPHALON AUSTRALIA, published 2013):

What was measured:
[1] = target: T1, human FcRn extracellular domain / beta2 microglobulin complex (human, UniProt P55899 24-290; P61769 21-119); assay: ELISA, pH 6.0; FcRn/β2m complex captured by anti-β2m antibody, antibody titrated, anti-human kappa HRP detection
T1 construct: range 24-290;range 21-119; Both chains were co-expressed in HEK293 6E cells and purified on IgG-Sepharose; In the ELISA the complex was captured by a coated anti-β2 microglobulin antibody at pH 6.0; also called FcRn/β2 microglobulin complex
Description: (§1) Maxisorp 96-well plates (Thermo Fisher Scientific, Rochester, N.Y.) were coated with 5 ug/ml anti-β₂ microglobulin monoclonal antibody. Wells were then washed with PBS and treated with Superblock blocking solution (Thermo Fisher Scientific, Rockford, Ill.). Then, the FcRn/β₂ microglobulin complex was diluted to 5 ug/ml in SPBS6T (50 mM sodium phosphate buffer pH 6.0, 150 mM NaCl, 0.05% Tween-20) and added to allow for capture by the coated anti-β₂ microglobulin antibody for 60 min at room temperature. Wells were then washed by SPBS6T and then exposed to hu39D10 or its the variants in SPBS6T and incubated for 60 min at room temperature. The hu39D10/FcRn complex formed by the incubation was probed with an F(ab′)2 fragment of an anti-human kappa HRP conjugate (SourthernBiotechnology, Birmingham, Ala.; 1/5000 dilution in SPBS6T) for 30 min at room temperature. After washing with SPBS6T, 100 ul of TMB (Sigma) was loaded into each well for signal detection. […] The affinity of the IgG variants to FcRn was calculated and plotted using Prism software by GraphPad Software (La Jolla, Calif.).

[2] = target: T1, human FcRn extracellular domain / beta2 …; assay: ELISA, pH 6.0; ratio of EC50 values against hu39D10 with native IgG4 Fc
Description: as §1

EC50 [1]	fold increase in affinity for human FcRn against hu39D10 [2]	Binder
3.8 nM	–	hu39D10 (humanized 39D10, anti-IL-5 antibody) with native human IgG4 Fc / kappa (antibody, Full IgG4/kappa expressed in HEK293 6E cells; also called CTIL-5-10gH/-gL6; hu39D10 with unmodified Fc; not shown: human IgG4 heavy chain constant region, native (cloned from Quickclone cDNA library)) heavy: not shown light: DIQMTQSPSSLSASVGDRVTITCLASEGISSYLAWYQQKPGKAPKLLIYGANSLQTGVPSRFSGSGSATDYTLTISSLQPEDFATYYCQQSYKFPNTFGQGTKVEVKRTVAAPSVFIFPPSDEQLKSGTASVVCLLNNFYPREAKVQWKVDNALQSGNSQESVTEQDSKDSTYSLSSTLTLSKADYEKHKVYACEVTHQGLSSPVTKSFNRGEC
0.81 nM	–	hu39D10 with the YTE mutations and the S228P hinge mutation (YTE+S228P) in IgG4 (antibody, also called hu39D10 with the 4 amino acid substitutions; S228P+YTE variant) heavy: EVQLVESGGGLVQPGGSLRLSCAVSGLSLTSNSVNWIRQAPGKGLEWVGLIWSNGDTDYNSAIKSRFTISRDTSKSTVYLQMNSLRAEDTAVYYCAREYYGYFDYWGQGTLVTVSSASTKGPSVFPLAPCSRSTSESTAALGCLVKDYFPEPVTVSWNSGALTSGVHTFPAVLQSSGLYSLSSVVTVPSSSLGTKTYTCNVDHKPSNTKVDKRVESKYGPPCPPCPAPEFLGGPSVFLFPPKPKDTLYITREPEVTCVVVDVSQEDPEVQFNWYVDGVEVHNAKTKPREEQFNSTYRVVSVLTVLHQDWLNGKEYKCKVSNKGLPSSIEKTISKAKGQPREPQVYTLPPSQEEMTKNQVSLTCLVKGFYPSDIAVEWESNGQPENNYKTTPPVLDSDGSFFLYSRLTVDKSRWQEGNVFSCSVMHEALHNHYTQKSLSLSLGK light: DIQMTQSPSSLSASVGDRVTITCLASEGISSYLAWYQQKPGKAPKLLIYGANSLQTGVPSRFSGSGSATDYTLTISSLQPEDFATYYCQQSYKFPNTFGQGTKVEVKRTVAAPSVFIFPPSDEQLKSGTASVVCLLNNFYPREAKVQWKVDNALQSGNSQESVTEQDSKDSTYSLSSTLTLSKADYEKHKVYACEVTHQGLSSPVTKSFNRGEC
0.81 nM	4.7 fold	hu39D10 with the YTE mutations (M252Y, S254T, T256E) in the IgG4 Fc (antibody, name in EU numbering, domain: IgG4 heavy chain constant region; Substitution positions are EU numbers, not positions on the UniProt entry; also called hu39D10 YTE variant) heavy: EVQLVESGGGLVQPGGSLRLSCAVSGLSLTSNSVNWIRQAPGKGLEWVGLIWSNGDTDYNSAIKSRFTISRDTSKSTVYLQMNSLRAEDTAVYYCAREYYGYFDYWGQGTLVTVSSASTKGPSVFPLAPCSRSTSESTAALGCLVKDYFPEPVTVSWNSGALTSGVHTFPAVLQSSGLYSLSSVVTVPSSSLGTKTYTCNVDHKPSNTKVDKRVESKYGPPCPSCPAPEFLGGPSVFLFPPKPKDTLYITREPEVTCVVVDVSQEDPEVQFNWYVDGVEVHNAKTKPREEQFNSTYRVVSVLTVLHQDWLNGKEYKCKVSNKGLPSSIEKTISKAKGQPREPQVYTLPPSQEEMTKNQVSLTCLVKGFYPSDIAVEWESNGQPENNYKTTPPVLDSDGSFFLYSRLTVDKSRWQEGNVFSCSVMHEALHNHYTQKSLSLSLGK light: DIQMTQSPSSLSASVGDRVTITCLASEGISSYLAWYQQKPGKAPKLLIYGANSLQTGVPSRFSGSGSATDYTLTISSLQPEDFATYYCQQSYKFPNTFGQGTKVEVKRTVAAPSVFIFPPSDEQLKSGTASVVCLLNNFYPREAKVQWKVDNALQSGNSQESVTEQDSKDSTYSLSSTLTLSKADYEKHKVYACEVTHQGLSSPVTKSFNRGEC
